Patent US20180030151A1 (MOGAM INSTITUTE FOR BIOMEDICAL RESEARCH, published 2018)
Changes are numbered by the printed parent chain.

Target: T1, recombinant human TFPI (tissue factor pathway inhibitor) (human, UniProt P10646 29-304)
T1 construct: Biotin-conjugated in the yeast FACS; also called hTFPI; TFPI antigen
Experiment: ELISA of phage-library Fab supernatants on TFPI-coated plate
Method: Single colonies were collected from the finally amplified library, and then cultured in 1.5 mL of SB/carbenicillin at 37° C. at 220 rpm until an OD600 of about 0.8-1.0 was reached, followed by incubation with 1 mM IPTG at 30° C. at 200 rpm for 12 hours. Next, the cells were centrifuged at 5500 rpm for 5 minutes, and the supernatant was added to a TFPI antigen-coated ELISA plate, incubated at room temperature for 2 hours, and then washed four times with PBST (1×PBS, 0.05% tween 20). Next, a 1:5000 dilution of an HRP/anti-hFab-HRP conjugate (CAT. No. A0293, Sigma) with 1% BSA/1×PBS was added to the cells, after which the cells were incubated at room temperature for 1 hour and washed four times with PBST (1×PBS, 0.05% tween 20). Then, the cells treated with a TMB solution for 5-10 minutes, and a TMB stop solution was added to the cells. Next, the absorbance at a wavelength of 450 nm was measured using the TECAN sunrise, and clones having high O. D values were selected as individual clones.

B1: clone A74 (antibody, V domains shown)
VH: EVQLVESGGGLVKPGGSLRLSCAASGFTFSSYAMHWVRQAPGKGLEWVSTITTGGSYTYYADSVQGRFTISRDNAKNSLYLQMNSLRAEDTAVYYCARQDGNFLMDYWGQGTLVTVSS
VL: DVVMTQTPLSLPVTLGQPASISCKSSQSLLDIDGKTYLNWLQQRPGQSPKRLIYLVSKLDSGVPDRFTGSGSGTDFTLKISRVEAEDVGVYYCWQGTHFPFTFGQGTKVEIKR
notes: Fab from phage library at selection; human IgG4/kappa IgG as purified
- binding result: binds

B2: clone A52 (antibody, V domains shown)
VH: B1 VH with H35N, Y57H, Q65D
VL: B1 VL
notes: as for B1
- binding result: binds
